According to patent US20060177831A1 (published 2006):

B1: c-MET extracellular domain (ECD)/Fc chimera (Fc fusion, not shown: a dimerising Fc or GST)
chain: ECKEALAKSEMNVNMKYQLPNFTAETPIQNVILHEHHIFLGATNYIYVLNEEDLQKVAEYKTGPVLEHPDCFPCQDCSSKANLSGGVWKDNINMALVVDTYYDDQLISCGSVNRGTCQRHVFPHNHTADIQSEVHCIFSPQIEEPSQCPDCVVSALGAKVLSSVKDRFINFFVGNTINSSYFPDHPLHSISVRRLKETKDGFMFLTDQSYIDVLPEFRDSYPIKYVHAFESNNFIYFLTVQRETLDAQTFHTRIIRFCSINSGLHSYMEMPLECILTEKRKKRSTKKEVFNILQAAYVSKPGAQLARQIGASLNDDILFGVFAQSKPDSAEPMDRSAMCAFPIKYVNDFFNKIVNKNNVRCLQHFYGPNHEHCFNRTLLRNSSGCEARRDEYRTEFTTALQRVDLFMGQFSEVLLTSISTFIKGDLTIANLGTSEGRFMQVVVSRSGPSTPHVNFLLDSHPVSPEVIVEHTLNQNGYTLVITGKKITKIPLNGLGCRHFQSCSQCLSAPPFVQCGWCHDKCVRSEECLSGTWTQQICLPAIYKVFPNSAPLEGGTRLTICGWDFGFRRNNKFDLKKTRVLLGNESCTLTLSESTMNTLKCTVGPAMNKHFNMSIIISNGHGTTQYSTFSYVDPVITSISPKYGPMAGGTLLTLTGNYLNSGNSRHISIGGKTCTLKSVSNSILECYTPAQTISTEFAVKLKIDLANRETSIFSYREDPIVYEIHPTKSFISGGSTITGVGKNLNSVSVPRMVINVHEAGRNFTVACQHRSNSEIICCTTPSLQQLNLQLPLKTKAFFMLDGILSKYFDLIYVHNPVFKPFEKPVMISMGNENVLEIKGNDIDPEAVKGEVLKVGNKSCENIHLHSEAVLCTVPNDLLKLNSELNIEWKQAISSTVLGKVIVQPDQNFT
B2: Anti-c-MET Avimer monomer M21 (designed binder)
chain: CVSNEFTCRSTKRCVPQEWVCDGVNDCEDGSDETGCPKHTSLQ
notes: Assayed protein also bears HA and 6His tags; also called C382
B3: Anti-c-MET Avimer monomer M38 (designed binder)
chain: B2 chain
notes: Assayed protein also bears HA and 6His tags; also called C399
B4: Anti-c-MET Avimer monomer M13 (designed binder)
chain: CLADEFQCHSTKRCVPRHWLCDGVNDCEDGSDEKSCSQDPEFHKVSLQ
notes: Assayed protein also bears HA and 6His tags; also called C239
B5: Anti-c-MET Avimer monomer M20 (designed binder)
chain: CEADEFRCRSTGRCISVDWRCDGVSDCEDSSDEESCESTAPTSLQ
notes: Assayed protein also bears HA and 6His tags; also called C381

Key:
[1] = target: recombinant human HGF (human, UniProt P14210 32-728); test: cell-based or functional assay
recombinant human HGF, sequence (P14210 32-728 limits assumed): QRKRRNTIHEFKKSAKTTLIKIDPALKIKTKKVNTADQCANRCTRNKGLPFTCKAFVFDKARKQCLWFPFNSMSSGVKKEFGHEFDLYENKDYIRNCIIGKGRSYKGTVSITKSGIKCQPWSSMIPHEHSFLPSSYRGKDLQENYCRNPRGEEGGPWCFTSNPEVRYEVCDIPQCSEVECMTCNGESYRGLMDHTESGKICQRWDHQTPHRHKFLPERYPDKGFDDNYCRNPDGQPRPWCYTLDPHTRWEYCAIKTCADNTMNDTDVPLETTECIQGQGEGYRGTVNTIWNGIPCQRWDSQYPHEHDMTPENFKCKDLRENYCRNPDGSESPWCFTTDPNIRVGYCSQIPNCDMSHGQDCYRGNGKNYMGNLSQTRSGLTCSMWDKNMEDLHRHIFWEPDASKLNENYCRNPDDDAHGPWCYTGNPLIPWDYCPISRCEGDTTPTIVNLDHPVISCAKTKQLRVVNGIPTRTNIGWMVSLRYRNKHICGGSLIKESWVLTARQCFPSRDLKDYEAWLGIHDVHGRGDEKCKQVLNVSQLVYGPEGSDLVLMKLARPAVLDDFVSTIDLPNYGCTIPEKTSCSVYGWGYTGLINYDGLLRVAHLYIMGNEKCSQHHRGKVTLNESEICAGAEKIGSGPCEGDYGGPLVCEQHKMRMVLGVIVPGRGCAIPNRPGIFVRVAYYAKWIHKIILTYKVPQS

[2] = target: B1; test: AlphaScreen competition with bn-HGF for c-MET ECD/Fc, NiNTA-pure
[3] = target: B1; test: binding ELISA on c-MET ECD/Fc, NiNTA-pure
[4] = target: B1; test: AlphaScreen competition with bn-HGF for c-MET ECD/Fc, Q-pure

Binder	IC50, inhibition of HGF-induced proliferation of serum-starved A549-SC cells (tritiated thymidine) [1] [nM]	IC50 [2] [nM]	Kd [3] [nM]	IC50 [4] [nM]
B1	1.73	–	–	–
B2	–	83	116	–
B3	–	50	95	881
B4	–	247	–	–
B5	–	22	158	186
